Among the data in article PMC8563728 (Nature Communications, 2021) are Kd values, retold here.

The assay concerns the target SARS-CoV-2 S1 (SARS-CoV-2, wild type (Wuhan-Hu-1), UniProt P0DTC2). The assay can be described thus: SPR. The conditions noted are these: both partners purified.

B1: 58G6 (antibody, V domains shown)
VH: QMQLVQSGPEVKKPGTSVKVSCKASGFTFSSSAVQWVRQARGQHLEWIGWIVVGSGNTNYAQKFQERVTLTRDMSTRTAYMELSSLRSEDTAVYYCAAPNCNSTTCHDGFDIWGQGTVVTVSS
VL: EIVLTQSPGTLSLSPGERATLSCRASQSVRSSYLGWYQQKPGQAPRLLIYGASSRATGIPDRFSGSGSGTDFTLTISRLESEDFAVYYCQQYDNSPWTFGQGTKVEIK
notes: also called 58G6 mAb; copies: 2 + 2
For B1, the Kd (usually a measure of binding affinity in units of concentration) is 1.08 nM.
